B1: JUNB (parent)
chain: FVKALDDLHKMNHVTPPNVSLGAT

Variants of: B1
Test: protein stability index of a GFP-peptide fusion (GPS, HEK-293T) (PSI 1-6); higher = more stable
Conditions: c terminus: a fixed tail appended
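Further: lentivirally expressed fusions sorted by FACS into six bins by GFP to DsRed ratio, PSI derived from sequencing read proportions per bin multiplied by bin number.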

Protein stability index, by site and new letter:
H9: R 1.66; C 2.04; V 1.79; T 2.15; M 2.64; K 1.9; W 4.16; D 2.05; E 2.08; F 3.03; I 1.29; Q 1.34; Y 1.54; L 1.44; A 1.86; G 1.97; S 2.57; P 1.69; N 1.72
D7: W 2.24; S 1.47; M 2.62; P 3.02; E 1.57; V 2.27; Q 1.7; Y 2.2; F 2.71; C 2.15; R 1.93; T 2.16; A 1.69; H 3.12; G 1.98; N 1.96; I 2.48; K 1.8
D6: C 4.16; N 2.83; R 1.59; V 2.59; Q 1.34; S 1.46; F 3.31; Y 4.17; G 2.07; E 1.97; I 2.58; W 3.45; M 2.54; P 2.08; A 2; K 2.39; H 1.57; T 1.88
K10: P 2.61; G 1.5; V 1.48; E 2.98; D 2.22; Q 1.95; H 2.13; S 2.11; N 2.07; L 1.72; M 1.72; A 2.79; R 2.77; I 2.35; W 4.58; T 2.21; Y 2.63; F 1.6; C 1.64
N12: M 1.65; H 2.57; P 2.08; E 2.01; A 2.14; I 1.67; F 1.74; K 1.55; L 3.23; C 2.34; G 2.49; D 1.61
M11: E 3.21; P 1.4; V 1.7; N 2.01; C 2.31; R 2.28; L 1.7; K 1.83; S 2.11; Q 2.63; H 1.94; T 2.06; G 1.61; F 2.6; I 2.26; W 2.23; Y 1.29; D 2.29; A 2.29
K3: T 2.02; W 2.47; Y 1.73; S 2.72; R 1.76; V 1.96
L8: Y 1.52; F 2.59; D 1.86; M 1.62; V 1.74; Q 1.68; E 2.31; I 2.64; P 2.31; K 2.3; N 1.93; T 2.46; R 1.89; G 2.26; A 1.51; S 2.39; C 1.77; H 2.26
L5: G 1.99; R 1.62; W 3.57; Q 2.08; V 1.86; E 3.33; S 1.72; P 2.2; F 2.1; A 2.23; H 1.9; K 2.27; M 1.93; N 2.38; T 2.22; I 1.75; D 2.72; C 1.87; Y 2.82
A4: H 2.03; Q 1.94; F 1.15; C 1.63; P 2.6; W 3.85; Y 2.85; S 2.03; G 2.68; T 2.34; R 1.61; V 1.77; N 1.66; M 1.58; K 1.58; D 2.24; E 2.13; L 2.69; I 2.12

— the supplement of paper PMC10567573
